Reference: PMC3937676, “Dynamics of Inter-heavy Chain Interactions in Human Immunoglobulin G (IgG) Subclasses Studied by Kinetic Fab Arm Exchange^([image sbox.jpg])” (The Journal of Biological Chemistry, 2014)

What was measured:
[1] = molecular target: human IgG2 antibody, half-molecule (heavy chain plus light chain) after reduction of the hinge disulfide bonds (human); test: FRET or BRET; real-time Fab arm (half-molecule) exchange of whole IgG; equimolar DyLight488- and DyLight594-labelled antibody, inter-heavy chain disulfide bonds fully reduced with DTT, 37 °C; first-order exponential fit; kobs taken as the CH3-CH3 dissociation rate (dimer to half-molecules)
[2] = molecular target: human IgG2 antibody, half-molecule (heavy chain plus light chain) after reduction of the hinge disulfide bonds (human); test: SEC; fluorescence-assisted HPLC; reduced (10 mM DTT) and alkylated (iodoacetamide) IgG, serial 4-fold dilutions 0.001-300 nM half-molecules with a small fixed dose of the DyLight-488 labelled equivalent, PBS with 0.1 mg/ml certolizumab pegol and 0.02% Tween 20, 37 °C up to 3 days; Superdex 200; dimer to half-molecules
[3] = molecular target: human IgG4 antibody, half-molecule (heavy chain plus light chain) after reduction of the hinge disulfide bonds (human); test: FRET or BRET; real-time Fab arm (half-molecule) exchange of whole IgG; equimolar DyLight488- and DyLight594-labelled antibody, inter-heavy chain disulfide bonds fully reduced with DTT, 37 °C; first-order exponential fit; kobs taken as the CH3-CH3 dissociation rate (dimer to half-molecules)
[4] = molecular target: human IgG3 antibody (IGHG3*01), half-molecule (heavy chain plus light chain) after reduction of the hinge disulfide bonds (human); test: as above
[5] = molecular target: human IgG1 antibody, half-molecule (heavy chain plus light chain) after reduction of the hinge disulfide bonds (human); test: as above
[6] = molecular target: G3*01 Fc fragment (CH2CH3 of IgG3 allele IGHG3*01, G3m(b*), with an IgG4 hinge) (human); test: FRET or BRET; real-time half-molecule exchange of Fc fragments; 4 μg/ml Fc-488 and Fc-594 in PBS-P, each 1 h at 37 °C with 3 mM DTT, then mixed in equal volumes, 37 °C (IgG4-Fc-V397M/K392N at 10 μg/ml final); kobs taken as the CH3-CH3 dissociation rate (dimer to single chains)
[7] = molecular target: the molecule itself; test: as above
[8] = molecular target: the molecule itself; test: FRET or BRET; equilibrium; 2-fold dilutions of equimolar Fc-488 and Fc-594, 2 h at 37 °C with 3 mM DTT; F620/F588 against total half-molecules; homodimerization model; dimer to single chains

Question: Which results are given for “human IgG2 antibody, half-molecule (heavy chain plus light chain) after reduction of the hinge disulfide bonds”?
Answer: half-life of dissociation (t1/2) [1]: 6.5 h; koff [1]: 3e-05 s⁻¹; Kd [2]: 23 pM

Question: How did the half-life of dissociation (t1/2) [3] turn out when “human IgG4 antibody, half-molecule (heavy chain plus light chain) after reduction of the hinge disulfide bonds” was run?
Answer: 6 min

Question: What about the koff [3] of the same molecule?
Answer: 0.0018 s⁻¹

Question: Which results are given for “human IgG3 antibody (IGHG3*01), half-molecule (heavy chain plus light chain) after reduction of the hinge disulfide bonds”?
Answer: half-life of dissociation (t1/2) [4]: 0.467 h; koff [4]: 0.0004 s⁻¹

Question: “human IgG1 antibody, half-molecule (heavy chain plus light chain) after reduction of the hinge disulfide bonds” was tested. Which half-life of dissociation (t1/2) [5] did it give?
Answer: 384 h

Question: What about the koff [5] of the same molecule?
Answer: 5e-07 s⁻¹

Question: For “G3*01 Fc fragment (CH2CH3 of IgG3 allele IGHG3*01, G3m(b*), with an IgG4 hinge) (domain or fragment)”, which fold faster dissociation than G3*06 [6] is on record?
Answer: > 10 fold

B1: G3*03 Fc fragment (CH2CH3 of IgG3 allele IGHG3*03, G3m(c3c5*), with an IgG4 hinge) (domain or fragment)
chain: ESKYGPPCPSCPAPELLGGPSVFLFPPKPKDTLMISRTPEVTCVVVDVSHEDPEVQFKWYVDGVEVHNAKTKPREEQYNSTFRVVSVLTVLHQDWLNGKEYKCKVSNKALPAPIEKTISKTKGQPREPQVYTLPPSREEMTKNQVSLTCLVKGFYPSDIAVEWESSGQPENNYNTTPPVLDSDGSFFLYSRLTVDKSRWQEGNVFSCSVMHEALHNRFTQKSLSLSPGK
modifications: DyLight 488 or DyLight 594 amine reactive dye (average degree of labeling ~2 for Fc fragments); hinge disulfide bonds reduced with DTT
Question: B1 was tested. Which “fold faster dissociation than IgG4 (m17)” value [7] did it give?
Answer: ~15 fold

B2: G2-M397V Fc fragment (CH2CH3 of IgG2 with M397V, IgG4 hinge) (domain or fragment)
chain: ESKYGPPCPSCPAPPVAGPSVFLFPPKPKDTLMISRTPEVTCVVVDVSHEDPEVQFNWYVDGVEVHNAKTKPREEQFNSTFRVVSVLTVVHQDWLNGKEYKCKVSNKGLPAPIEKTISKTKGQPREPQVYTLPPSREEMTKNQVSLTCLVKGFYPSDISVEWESNGQPENNYKTTPPVLDSDGSFFLYSKLTVDKSRWQQGNVFSCSVMHEALHNHYTQKSLSLSPGK
modifications: DyLight 488 or DyLight 594 amine reactive dye (average degree of labeling ~2 for Fc fragments); hinge disulfide bonds reduced with DTT
Question: Which koff [7] does the source give for B2 here?
Answer: < 1e-06 s⁻¹

B3: IgG4-V397M/K392N Fc fragment (domain or fragment)
chain: ESKYGPPCPSCPAPEFLGGPSVFLFPPKPKDTLMISRTPEVTCVVVDVSQEDPEVQFNWYVDGVEVHNAKTKPREEQFNSTYRVVSVLTVLHQDWLNGKEYKCKVSNKGLPSSIEKTISKAKGQPREPQVYTLPPSQEEMTKNQVSLTCLVKGFYPSDIAVEWESNGQPENNYNTTPPMLDSDGSFFLYSRLTVDKSRWQEGNVFSCSVMHEALHNHYTQKSLSLSLGK
modifications: DyLight 488 or DyLight 594 amine reactive dye (average degree of labeling ~2 for Fc fragments); hinge disulfide bonds reduced with DTT
Question: For B3, which koff [7] is on record?
Answer: 0.16 s⁻¹

Question: And the Kd [8]?
Answer: 2.3 µM
